Values of other authors as cited in publication PMC10565355.

Molecular target: Fibrinogen (Homo sapiens) (UniProt P02671)
Chain of UniProt P02671 (P02671 36-866, chain 1 of 3): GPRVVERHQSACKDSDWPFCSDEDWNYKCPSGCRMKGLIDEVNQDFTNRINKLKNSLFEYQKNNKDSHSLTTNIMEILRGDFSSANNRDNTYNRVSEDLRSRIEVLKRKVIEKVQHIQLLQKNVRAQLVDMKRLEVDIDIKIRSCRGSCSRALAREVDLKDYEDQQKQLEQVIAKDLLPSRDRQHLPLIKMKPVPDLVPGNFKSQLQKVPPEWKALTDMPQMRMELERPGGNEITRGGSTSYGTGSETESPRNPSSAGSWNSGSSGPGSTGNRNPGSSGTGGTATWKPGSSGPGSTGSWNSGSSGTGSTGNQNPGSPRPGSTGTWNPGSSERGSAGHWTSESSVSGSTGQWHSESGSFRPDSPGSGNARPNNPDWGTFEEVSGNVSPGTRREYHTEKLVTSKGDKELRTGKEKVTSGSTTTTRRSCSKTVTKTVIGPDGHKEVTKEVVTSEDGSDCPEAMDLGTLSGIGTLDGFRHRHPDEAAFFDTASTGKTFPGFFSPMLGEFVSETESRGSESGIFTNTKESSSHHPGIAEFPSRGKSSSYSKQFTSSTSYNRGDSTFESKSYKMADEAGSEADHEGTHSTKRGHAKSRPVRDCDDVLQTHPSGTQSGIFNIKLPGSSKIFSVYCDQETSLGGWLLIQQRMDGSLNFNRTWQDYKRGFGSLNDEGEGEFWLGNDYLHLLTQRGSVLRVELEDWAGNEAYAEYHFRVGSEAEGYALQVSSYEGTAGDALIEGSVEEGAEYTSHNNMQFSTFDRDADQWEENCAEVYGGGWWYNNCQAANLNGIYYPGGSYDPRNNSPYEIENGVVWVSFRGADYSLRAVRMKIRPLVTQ
Chain of UniProt P02671 (P02675 45-491, chain 2 of 3, further chain): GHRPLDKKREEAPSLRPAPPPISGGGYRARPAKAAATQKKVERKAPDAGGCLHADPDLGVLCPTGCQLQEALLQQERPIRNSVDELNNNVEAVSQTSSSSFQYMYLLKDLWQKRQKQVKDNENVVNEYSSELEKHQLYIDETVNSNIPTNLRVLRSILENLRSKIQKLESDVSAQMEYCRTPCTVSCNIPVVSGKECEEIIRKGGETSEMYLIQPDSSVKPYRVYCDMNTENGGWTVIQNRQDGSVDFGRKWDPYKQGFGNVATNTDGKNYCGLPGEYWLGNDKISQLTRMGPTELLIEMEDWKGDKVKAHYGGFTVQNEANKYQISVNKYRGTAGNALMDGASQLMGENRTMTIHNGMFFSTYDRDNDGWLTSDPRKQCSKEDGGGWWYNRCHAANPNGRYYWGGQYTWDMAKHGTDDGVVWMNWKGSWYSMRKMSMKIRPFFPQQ
Chain of UniProt P02671 (P02679 27-453, chain 3 of 3, further chain): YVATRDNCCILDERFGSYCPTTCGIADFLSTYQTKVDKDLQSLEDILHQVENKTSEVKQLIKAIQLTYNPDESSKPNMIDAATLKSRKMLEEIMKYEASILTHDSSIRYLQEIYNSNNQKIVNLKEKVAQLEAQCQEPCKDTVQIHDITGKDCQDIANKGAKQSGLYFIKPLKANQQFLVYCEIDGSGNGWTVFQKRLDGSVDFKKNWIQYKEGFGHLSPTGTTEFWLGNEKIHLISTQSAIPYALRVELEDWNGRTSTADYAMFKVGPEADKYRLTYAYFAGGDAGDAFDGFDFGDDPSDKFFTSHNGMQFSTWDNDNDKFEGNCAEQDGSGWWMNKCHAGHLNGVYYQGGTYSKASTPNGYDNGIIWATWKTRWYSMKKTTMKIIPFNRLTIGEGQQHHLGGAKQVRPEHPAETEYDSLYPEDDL

Efb EfbA (from UniProt A6QG59)
Kd: 1 µM
